Data published in patent publication US12390517B2, “Compositions, methods and uses for eliciting an immune response” (Griffith University, priority 2018, dated 2025).

T1: recombinant MsrA/B (methionine sulfoxide reductase) from N. gonorrhoeae 1291, amino acids 30-522 of SEQ ID NO: 1 (recombinant with 6-His tag SEQ ID NO: 15); tag (Neisseria gonorrhoeae, UniProt P14930, E520K)
T1 construct: 6-His tag (N); thrombin cleavage site (N); made in house; host or cells: E. coli BL21 Star (DE3)pLysS
T1 sequence (P14930 with tags, fused parts or gaps E520K): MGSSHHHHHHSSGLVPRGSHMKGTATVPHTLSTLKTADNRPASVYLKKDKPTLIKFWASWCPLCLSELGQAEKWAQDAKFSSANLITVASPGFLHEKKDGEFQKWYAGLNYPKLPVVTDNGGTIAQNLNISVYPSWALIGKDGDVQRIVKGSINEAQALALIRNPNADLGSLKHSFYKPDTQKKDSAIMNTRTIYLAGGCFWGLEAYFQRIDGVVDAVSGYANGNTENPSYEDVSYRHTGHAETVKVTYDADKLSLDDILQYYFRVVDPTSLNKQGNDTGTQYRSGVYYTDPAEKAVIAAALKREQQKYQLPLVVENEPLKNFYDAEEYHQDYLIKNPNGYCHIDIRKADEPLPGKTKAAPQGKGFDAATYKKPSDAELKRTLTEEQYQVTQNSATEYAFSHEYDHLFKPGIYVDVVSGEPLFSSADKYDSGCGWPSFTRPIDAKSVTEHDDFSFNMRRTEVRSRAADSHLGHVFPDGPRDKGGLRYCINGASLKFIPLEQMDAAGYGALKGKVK


Key:
[1] = target: T1, recombinant MsrA/B (methionine sulfoxide reductase) from N. gonorrhoeae 1291, amino acids 30-522 of SEQ ID NO: 1 (recombinant with 6-His tag SEQ ID NO: 15); tag; experiment: Surface plasmon resonance (SPR) affinity assay of Met(O) binding to immobilized MsrA/B; parameters: species or system Neisseria gonorrhoeae 1291; conditions: read-out: KD (equilibrium dissociation constant), Biacore T200, MsrA/B immobilized on CM5 chip, Met(O) 0.16 to 100 nM, single cycle kinetics, absence of serum/antibody
Procedure: The msr gene was amplified from N. gonorrhoeae 1291 using primers msrexp_NdeIF (5′-[…]-3′; SEQ ID NO:20) and msrexp_XhoIR (5′-[…]-3′; SEQ ID NO:21) and the resulting PCR product was cloned into pET15b to obtain a Msr expression construct pET15bmsr. The construct pET15bmsr was transformed into E. coli BL21 Star (DE3)pLysS host strain (Novagen) and MsrA/B was overexpressed and purified. Briefly, expression was induced by 0.1 mM IPTG at an optical density at 600 nm (OD600) of 0.4 for 24 hr at room temperature. Cell cultures were harvested and the cell pellet was re-suspended in buffer A. Cells were lysed by sonication, centrifuged and the supernatant was applied to a column packed with TALON™ metal affinity resins (Clontech laboratories, Inc). […] Fractions were collected and analyzed by 4-12% NuPAGE® Novex Bis-Tris Gels (Invitrogen) stained with Coomassie Blue, and by Western blot of anti-His polyclonal antisera. […]
SPR assays were performed using a Biacore T200 for affinity analysis and a Pall Pioneer FE for competition assays. […] Data was analyzed using the Biacore T200 evaluation software package. […] Data was collected using the Pioneer Software package and analyzed using Qdat analysis software. The percentage blocking was calculated based on the relative RMax of the Met(O) injection with and without serum, and the serum with and without Met(O). […]

[2] = system: whole cell N. gonorrhoeae 1291; experiment: Whole cell ELISA of mouse antisera against N. gonorrhoeae 1291 strains; assay type: binding; conditions: antisera of 5 mice immunized with Freund's adjuvant; for Whole cell ELISA titre to the mutant strain: 1291 msr::kan mutant; for Whole cell ELISA average titre to 1291 Δmsr_C: complemented strain; for Whole cell ELISA average titre to 1291: wild-type 1291
Procedure: Groups of 10 female BALB/c mice (6 weeks old) were immunized subcutaneously with 5 μg of recombinant MsrA/B with either Alhydrogel® (aluminium hydroxide, InvivoGen) or Freund's (FCA/FIA, Sigma-Aldrich) adjuvant on days 0, 21, and 28. Terminal bleeds were collected on day 42. For Freund's adjuvant, Freund's complete adjuvant (FCA) was used on day 0 and Freund's incomplete adjuvant (FIA) was used in the boosts of day 21 and 28. Pre-bleed of each mouse was collected 4 days before immunization. This study was carried out in accordance with the recommendations of the Australian Code for the Care and Use of Animals for Scientific Purposes, the Griffith University Animal Ethics Committee (AEC). The protocol was approved by the Griffith University AEC.
For whole cell ELISA, bacteria were grown on BHI or GC plates for 16 hr. Cells were harvested and resuspended in PBS at an OD600 of 0.2. Microtitre plate wells were filled with 50 μl of the bacterial suspension and dried at room temperature overnight in the laminar flow cabinet. The bacteria in the dried wells were then heat-killed for 1 hr in 56° C. For recombinant protein ELISA, wells of plates were coated with 100 ng of purified recombinant MsrA/B protein in 100 μl of coating buffer (0.5M carbonate/bicarbonate buffer, pH 9.6) for 1 hr at room temperature. All ELISAs were performed with mouse pre-immune or MsrA/B immunized sera, and secondary antibody as specified in the results (polyclonal anti-mouse Ig HRP (Dako) or IgG1, IgG2a, IgG2b, IgG3 or IgM HRP (Thermofisher Scientific)). The substrate TMB (3,3′, 5,5;-tetramethylbenzidine) solution (Thermofisher Scientific) was used as per manufacture's instruction. Equal amount of 1 N hydrochloric acid was added to stop the reaction. Absorbance was read in a TECAN Model Infinite 200 Pro plate reader at 450 nm.

| Molecule | Kd [1] [nM] | Whole cell ELISA titre to the mutant strain [2] | Whole cell ELISA average titre to 1291 Δmsr_C [2] | Whole cell ELISA average titre to 1291 [2] |
| --- | --- | --- | --- | --- |
| C[S+]([O-])CC[C@H](N)C(=O)O (stereo partly shown) [Met(O), methionine sulfoxide] | 15.4 ± 3.7 |  |  |  |
| MsrB: recombinant MsrB domain, his-tag removed (SEQ ID NO:31), given to mice with Freund's adjuvant (protein, Recombinant MsrB) GSHMKAATYKKPSDAELKRTLTEEQYQVTQNSATEYAFSHEYDHLFKPGIYVDVVSGEPLFSSADKYDSGCGWPSFTRPIDAKSVTEHDDFSFNMRRTEVRSRAADSHLGHVFPDGPRDKGGLRYCINGASLKFIPLEQMDAAGYGALKGKVK |  | 1,000 | 40,000 | 16,000 |
| MsrA: recombinant MsrA domain, his-tag removed (SEQ ID NO:28), given to mice with Freund's adjuvant (protein, Recombinant MsrA) GSHMKHSFYKPDTQKKDSAIMNTRTIYLAGGCFWGLEAYFQRIDGVVDAVSGYANGNTENPSYEDVSYRHTGHAETVKVTYDADKLSLDDILQYYFRVVDPTSLNKQGNDTGTQYRSGVYYTDPAEKAVIAAALKREQQKYQLPLVVENEPLKNFYDAEEYHQDYLIKNPNGYCHIDIRKADEPLPG |  | 1,000 | 20,000 | 10,000 |
